Test results: patent CN112851807A (BLOOD DISEASES HOSPITAL CHINESE ACADEMY OF MEDICAL SCIENCES …, dated 2021)

Biological target: T1, 人CD123蛋白 (白细胞介素3受体α链) (human, UniProt P26951 19-378)
T1 construct: whole, on cells; also called IL-3Rα; 3T3/CD123+
Assay: flow cytometry, PE-labelled antibody titrated on CD123-transfected 3T3 cells, fitted in GraphPad Prism 5

T1 sequence (P26951 19-378): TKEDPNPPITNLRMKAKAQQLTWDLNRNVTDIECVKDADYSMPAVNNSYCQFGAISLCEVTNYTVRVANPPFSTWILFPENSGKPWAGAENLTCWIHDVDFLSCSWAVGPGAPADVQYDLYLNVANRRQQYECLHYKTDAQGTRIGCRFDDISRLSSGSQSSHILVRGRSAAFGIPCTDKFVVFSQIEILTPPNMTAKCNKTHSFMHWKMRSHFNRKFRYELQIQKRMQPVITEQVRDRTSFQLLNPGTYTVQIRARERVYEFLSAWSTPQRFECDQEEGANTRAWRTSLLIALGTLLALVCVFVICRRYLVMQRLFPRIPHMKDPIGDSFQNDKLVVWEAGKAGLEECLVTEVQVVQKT

| Binder | Kd |
| --- | --- |
| 抗CD123单克隆抗体8D7 (antibody, IgG1, V domains shown, Purified from ascites; also called CGMCC 18849) VH: EVQLQESGPGLVKPSQSLSLTCTVTGYSITNDYTWNWIRQFPGNKLEWMGYISFSGITSHNPSLNSRISITRDTSKNQFFLQLNSVTTEDTATYYCTRGVDFWGQGTSVTVSA VL: DIVLTQSPATLSVTPGDSVSLSCWASQSISNSLHWYQQKSHESPRLLIKFASQSISGIPSRFSGSGSGTDFTLSIDSVETEDFGMYFCQQGHTWPHTFGAGTKLELKR | 2.01 nM |
| 抗CD123单克隆抗体12H7 (antibody, IgG1, V domains shown, Purified from ascites; also called CGMCC 18847) VH: QVKLQESGPGLVKPSQSLSLTCTVTGYSITSDFAWNWVRQFPGDKLEWMGYISYSGGTNYHPSLKDRISITRDTSKNQVFLQLNSVTTEDTATYYCARGGMITPYFAYWGQGTLVTVSA VL: DVVVTQTPLSLPVSFGDQVSISCRSSQSLANSYGNTFLSWYLHKPGQSPQLLIYGISNRFSGVPDRFSGSGSGTDFTLKISTIKPEDLGIYYCLQGTHQPWTFGGGTKLEIKR | 2.09 nM |
| 抗CD123单克隆抗体6E11 (antibody, IgG1, V domains shown, Purified from ascites; also called CGMCC 18848) VH: QVQLQESGPGLVKPSQSLSLTCTVTGYSITNDFAWNWIRQFPGNKLEWMGYISFSGSTSYNPSLKGRISITRDTSKNQFFLQLNSVTTEDTATYSCARGGMITPYFSYWGQGTLVTVSA VL: DVVVTQTPLSLPVSFGDSVSISCRSSQSLANSYGNTFLSWYLHRPGQSPQLLIYGISNRFSGVPDRFSGSGSGTDFTLKISSIKPEDLGVYYCLQGTHQPWTFGGGTKLEIKR | 2.1 nM |
